Data on 4 substances can be found in US20100273704A1.

The target in the test is BCL-XL ΔC [GST: P08515]. In words: fluorescence polarization.
For BAD SAHBA(S→D), the EC50 is above 10000 nM. Consider BAD SAHBA, for which the EC50 was found to be 40.2 nM. As for BAD SAHBA(L,D→A), the EC50 turned out to be 333 nM. With BID SAHBA the figure was 35.3 nM.
